B1: TPR t1 (parent)
chain: GACCAAUCUGCCCUCAGAGCUCGAGAACAUCUUCGGAUGCAGAGGAGGCAGGCUUCGGUGGCGCGAUAGCGCCAACGUCCUCAACCUCCAAUGCAUCCCACCACAUGAUGAUGCCUGAAGAGCCUUGGUUUUUUG

Variants of: B1
Test: polymerase ribozyme fitness, log enrichment relative to wild type (log ratio); higher = more active; in vitro selection for triplet polymerase activity
Summary of the method: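 Each subunit of a heterodimeric triplet polymerase ribozyme was mutagenized into a library by PCR, transcribed, and subjected to one round of in vitro selection, run in triplicate. Libraries were annealed with a biotinylated primer, the partner subunit and triplets, incubated frozen at −7 °C, and extended constructs were gel-excised, captured on streptavidin beads and recovered by RT-PCR. Input and output libraries were sequenced on Illumina, keeping genotypes with ≥10 input reads and ≥1 read per output. Fitness is log base 2 of genotype enrichment divided by wild-type enrichment, from inverse-variance-weighted replicate averages.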

With GACCAAUCUGCCCUCAGAGCUCGAGAACAUCUUCGGAUGGAGAGGAUGCAGGCUUCGGUGGCGUGAUAGCGCCAACGUCCUCAACCUCCAAUUCAUCCCACCACAUGAUGAUGCCUGAAGAGCCUUGGCUUUGUG [C40G G47U C64U G93U U129C U133G] as the variant, how does the “polymerase ribozyme fitness (log ratio)” value read?
Its value is -3.04.

Which “polymerase ribozyme fitness (log ratio)” value does the source give for GACCAAUCUGCCCUCAGAGCUCGAGAACAUCUUCGGAUGGAGAGGAGGCAGGCUUCCGUGGCGCGAUAGCGCCAACGUUCUCAACCUCCAAUUCAUCCCACCACAUGAUGAUGCCUCAAGAGACUUGGUUUUUUG [C40G G57C C79U G93U G117C C123A] here?
The value was -4.88.

Which “polymerase ribozyme fitness (log ratio)” value does the source give for GACCAAUCUGCCCUCAGAGCUCGAGAACAUCUUCGGAUGGAGAGGAGGCAUGCUUCGGUGGCGCGAUAGCGCCAACGUCCUCAACCACCGAUGCAUCCCACCACAUGAUGAUGCCUUAAGAGCCUUGGUUUUUUG [C40G G51U U87A A90G G117U] here?
The value was -5.66.

With GACCAAUCUGCCCUCAGAGCUCGAGAACAUCUUCGGAUGGAGAGGAGCCAGGCUUCGGUGGCGCGAUAGCGCCAACGUCCUCAACCUCCAAUCCAUCCCACCACAUGAUGAUGCCUGAAGAGCCUUGGUUUUUUG [C40G G48C G93C] as the variant, how does the “polymerase ribozyme fitness (log ratio)” value read?
The value was 0.0171.

For GACCAAUCUGCCCUCAGAGCUCGAGAACAUCUUCGGAUGGAGAGGAGGCAGGCUUCGGUGGCGCGAUAGCGCCAACGUCCUCAACCUCGAAUACAUCCCACCACAUGAUGAUGCCUGAAGAGCCUUGGUUUUUUG [C40G C89G G93A], which “polymerase ribozyme fitness (log ratio)” value is on record?
Its value is -2.6.

Which “polymerase ribozyme fitness (log ratio)” value does the source give for GACCAAUCUGCCCUCAGAGCUCGAGAACAUCUUCGGAUGGAGAGGAGUCAGGCUUCGGUGGCGCGAUAUCGCCAACGUCCUCAACCUCCAAUGCAUCCCACCACAUGAUGAUGCCUGAAGAGCCUUGGUUUUUUG [C40G G48U G69U] here?
Its value is -1.67.

For GACCAAUCUGCCCUCAGAGCUCGAGAACAUCUUCGGAUGGAGAGGAGACAGGCUUCGGUGGCGUGAUAGCGCCAACGUCCUCAACCUCCAAUGCAUCCCACCAAAUGAAGAUGACUGAAGAGCCUUGGUAUUUUG [C40G G48A C64U C104A U109A C114A U130A], which “polymerase ribozyme fitness (log ratio)” value is on record?
The value was -5.98.

Which “polymerase ribozyme fitness (log ratio)” value does the source give for GACCAAUCUGCCCUCAGAGCUCGAGAACAUCUUCGGAUGGAGAGGAGGCAGGCUUCGGUGGCGUGAUAGCGCCAACGUCCUCAAACUCCAAUGCAUCCCACCACAUGAUGACGCCUGAAGAGCCUUGGUUUUUUG [C40G C64U C85A U112C] here?
The value was -0.298.

Which “polymerase ribozyme fitness (log ratio)” value does the source give for GACCAAUCUGCCCUCAGAGCUCGAGAACAUCUUCGGAUGGAGAGGAGGCAGGCUUCGGUGGCGCGAUAGUGCCAACGUCCUCAACCUCCAAUGCAUCCCACCACAUGAUGAUGCCUGAAGAGCCUUGGUUUUUUG [C40G C70U] here?
The value was -1.65.

For GACCAAUCUGCCCUCAGAGCUCGAGAACAUCUUCGGAUGGAGAGGAGGCAGGCUUCGGUGGCGCGAUAGCGCCAACGUCCUCAACCUCCAAUGCAUCCCACCACAUGAUGAUGUCUGAAGAGUCUUGGUUUUUUG [C40G C114U C123U], which “polymerase ribozyme fitness (log ratio)” value is on record?
Its value is -4.09.

Which “polymerase ribozyme fitness (log ratio)” value does the source give for GACCAAUCUGCCCUCAGAGCUCGAGAACAUCUUCGGAUGGAGACGAGGCAGGCUUCGGUGGCGCGAUAGCGCCUACGUCCUCAACCUCCAAUGCAUCCCACCACAUGAUGAUGCCUGAAGAGCCUUGGUUUUUUG [C40G G44C A74U] here?
The value was -1.5.

For GACCAAUCUGCCCUCAGAGCUCGAGAACAUCUUCGGAUGGAGAGGAUGAAGGCUUCGGUGGCGCGAUAGCGCCAACGUCCUCAACCUCCAAUGCAUCCCACCACAUGAUGAUGCCUGAAGAGCCUUGGUUUUUUG [C40G G47U C49A], which “polymerase ribozyme fitness (log ratio)” value is on record?
Its value is -3.74.

With GACCAAUCUGCCCUCAGAGCUCGAGAACAUCUUCGGAUGGAGAGGAGGCAGGCUUCGGUGGCGCGAUAGCGGCAACGUCCUCAACCUCCAAUGCAUCCCACCACAUGAUGAUGCCUGAAGAGCCUUGGUUUUUUG [C40G C72G] as the variant, how does the “polymerase ribozyme fitness (log ratio)” value read?
The value was -1.56.

Which “polymerase ribozyme fitness (log ratio)” value does the source give for GACCAAUCUGCCCUCAGAGCUCGAGAACAUCUUCGGAUGGAGAGGAGGCAGGCUUCGGUGACGCGAUAGCGCCAACGUCCUCAACCUCCAAUGCAUCCCACCACAUGAUGAUGCCUGAAAAGCCUUGGUUUUUUG [C40G G61A G120A] here?
Its value is 0.253.

Which “polymerase ribozyme fitness (log ratio)” value does the source give for GACCAAUCUGCCCUCAGAGCUCGAGAACAUCUUCGGAUGGAGAGAAGGCAGGCUUCGGUGGCGCGAUAGCGCCAACGCCCUCAACCUCCAAUGCAUCCCACCACAUGAUGAUUCCUGAAGAGCCUUGGUUUUUUA [C40G G45A U78C G113U G135A] here?
Its value is -4.25.

With GACCAAUCUGCCCUCAGAGCUCGAGAACAUCUUCGGAUGGAGAGGAGGCAGACUUCGGUGGCGCGAUAGCGCCAACGUCCUCAACCUCCAAUGCAUCCCACCACAUGAUGAUGCCUGAAGAGCCUUGGUUUUUUG [C40G G52A] as the variant, how does the “polymerase ribozyme fitness (log ratio)” value read?
The value was -0.59.

For GACCAAUCUGCCCUCAGAGCUCGAGAACAUCUUCGGAUGGAGAGGAGGCAGGCUUCGGUGGCGCGAUAGCGCCAACGUCCUCAACCUCCAAUGCAUCCCACCACAUGAUGAUGCCUGAAGAGGCUUGGUUUUUUG [C40G C123G], which “polymerase ribozyme fitness (log ratio)” value is on record?
The value was 0.299.

Which “polymerase ribozyme fitness (log ratio)” value does the source give for GACCAAUCUGCCCUCAGAGCUCGAGAACAUCUUCGGAUGGAGAGGAGGCAGGCUUCGGUGGCGCGAUAGCGCCAACGUCCUCAACCUCCAAUGCAUCCCACCACAUGAUGAUGCCUGAAGAGUCUUGGUUUUUUG [C40G C123U] here?
The value was 0.0444.

Which “polymerase ribozyme fitness (log ratio)” value does the source give for GACCAAUCUGCCCUCAGAGCUCGAGAACAUCUUCGGAUGGAGAGGAGGCAGGCUUCGGUGGCGCGAUAGCGCCAACGUCCUCAACCUCGAAUGCAUCCCACCACAUGAUGAUGCCUGAAGAGCCUUGGUUUUUUG [C40G C89G] here?
The value was -2.85.

With GACCAAUCUGCCCUCAGAGCUCGAGAACAUCUUCGGAUGGAGAGGAUGCAGGCUUCGGUGGCGCGAUAGCUCCAACGUCCUCAACCUCCAAUGCAUCCCACCACAUGAUGAUGCCUGAAGAGCCUUGGUUUUUUG [C40G G47U G71U] as the variant, how does the “polymerase ribozyme fitness (log ratio)” value read?
Its value is -6.34.

For GACCAAUCUGCCCUCAGAGCUCGAGAACAUCUUCGGAUGGAGAGGAGGCAGGCUUCGGUGGCGCGAUAGCGCCAACGUCCUCAACGUCCAAUGCAUCCCACCACAUGAUGAUGCCUGAAGAGCCUUGGUUUUUUG [C40G C86G], which “polymerase ribozyme fitness (log ratio)” value is on record?
The value was -2.86.

Source: the RNAGym collection of RNA variant scans (doi:10.1073/pnas.2313332121)
